Experimental data: the nanobody polyreactivity screen of Harvey et al. (2022)

Assay: yeast display, Sf9 membrane polyspecificity reagent, FACS + sequencing; frameworks hold sequencing errors
Method in brief: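 Polyreactivity labels are assigned by the sorting gate from which each nanobody was recovered. The gates were low and high (top ~1%), set on anti-HA fluorescence for expression and streptavidin fluorescence for reagent binding. Before sorting, galactose-induced (36–48 hours) yeast display cells were stained for 1 hour at 4 °C with 10% biotinylated, detergent-solubilized Sf9 membrane reagent.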

| Sequence | polyreactivity (PSR sort gate) |
| --- | --- |
| QVQLEESGGGLVQAGGSLRLSCAASGIIFWWYAMGWYRQAPGKERELVAAISGTGGSTYYADSVKGRFTISRDNAKNTVYLQINRLKPEDTAVYFCAARGKSSSFYDYDYWGQGTQVTVSS | low polyreactivity |
| QVQLEESGGGLVQAGGSLRLSCAASGITFPRYAMGWYRQAPGKERELVAAIRWNGGSTYYADSVKGRFTISRDNAKNTVYLQMNSLKPEDTAVYYCAARKDPSFSSFGYGYWGQGTQVTVSS | high polyreactivity |
| QVQLEESGGGLVQAGGSLRLSCAASGITFRAYAMGWYRQAPGKERELVAAITGRGGRTYYADSVKGRFTISRDNAKNTVYLQMNSLKPEDPAVYYCNAYLWRVNQTYDYWGQGTQVTVSS | high polyreactivity |
| QVQLEESGGGLVQAGGSLRLSCAASGITFRYYAMGWYRQAPGKEWELVAAITRSGSSTFYADSVKGRFTISRDNAKNTVYLQMNSLKPEDSAVYYCAAESVRAVFPDRYKYWGQGTQVTVSS | high polyreactivity |
| QVQLEESGGGLVQAGGSLRLSCAASGITFSDYAMGWYRQAPGKERELVAGISFTVGSTYYADSVKRPFTISRDNAKNTVYLQMNSLKPEDTAVYLCNADSFVDLDYWGQGTQVTVSS | low polyreactivity |
| QVQLEESGGGLVQAGGSLRLSCAASGITFVDYDMGWYRQATGKERELVAAITTGSSTYYADSVKGRFTISRDNAKNTVYLQMNSLKPEDTAVYYCARDLEYDYYQQWSYGYWGQGTQVTVSS | low polyreactivity |
| QVQLEESGGGLVQAGGSLRLSCAASGITFWHNTMGWYRQATGKEREMVAAISWTGGRTYYADSVKGRFTISRDNAKNTVYLQMNSLKPDDTAVYYCAADFSWTPSGNYDSWGQGTQVTVSS | low polyreactivity |
| QVQLEESGGGLVQAGGSLRLSCAASGITLAHNAMGWYRQAAGKERELVASITESGGSTYYADSVKGRFTISRDNAKNTVYLQMNRLKPEDTAVYYCAVRPTVGYWTVYYWGQGTQVTVSS | high polyreactivity |
| QVQLEESGGGLVQAGGSLRLSCAASGITSPAYAMGWYRQAPGKEREFVAAISSSGGSTYYADSVKGRFTISRDNAKNTVYLQMNSLKPEDTAVYYCAVRGRISSVSRYGYWGQGTQVTVSS | high polyreactivity |
| QVQLEESGGGLVQAGGSLRLSCAASGLTFAYNTMGWYRQAPGKEREFVASISSSGGNTYYADSVKGRFTISRDNAKNTVYLQMNSLKPEDTAVYYCAAKKKYHYVASYKRFEYWGQGTQVTVSS | low polyreactivity |
| QVQLEESGGGLVQAGGSLRLSCAASGLTFPSNAMGWYRQATGKERALVASISKRGGRTYYADSVKGRFTISRDNAKHTVYLQMNSLKPEDTAVYDCATPYAYPGSVQYAGYNYWGQGTQVTVSS | high polyreactivity |
| QVQLEESGGGLVQAGGSLRLSCAASGNIFPRYAMGWYRQAPGKERELVAAISYSGARTYYADSVKGRFTISRDNAKNTVYLQMNSLKPEDTAVYYCNKRVYYPWGQGTQVTVSS | high polyreactivity |
| QVQLEESGGGLVQAGGSLRLSCAASGRIFNTNAMGSYRQAPGKERELVAGITYSGDSTYYADSVKGRFTISRDNAKNTVYLQMNSLKPEDTAVYYCATDPASPYLYDYWGQGTQVTVSS | low polyreactivity |
| QVQLEESGGGLVQAGGSLRLSCAASGRIFPRNAMGWYRQATGKERELVASITSGGSTNYADSVKGRFTISRDNAKNTVYLQMHSLKPEDTAVYYCAADRTGYQLETTEYDYWGQGTQVTVSS | high polyreactivity |
| QVQLEESGGGLVQAGGSLRLSCAASGRIFPTYVMGWYRQAPGKERELVAAITSIDGRTYYADSVKGRFTISRDNAKNTVYLQMNSLKPEDTAVYYCAADYDYLSISEGYYWGQGTQVTVSS | low polyreactivity |
| QVQLEESGGGLVQAGGSLRLSCAASGRIFQRNAMGWYRQAPGKEREFVAAITKSGGGTYADSVKGRFTISRDNAKNTVYLQMNSLKAEDTAVYYCNVVPVWRPYSLINWQKDFGYWGQGTQVTVSS | high polyreactivity |
| QVQLEESGGGLVQAGGSLRLSCAASGRIFRGNAIAWYRQAPGKERELVASITRGNNTYYADSVKGRFTISRDNAKNTVYLQMNSLKPEDTAVYYCAKRYIYRYYWGQGTQVTVSS | high polyreactivity |
| QVQLEESGGGLVQAGGSLRLSCAASGRIFRYTLGWYRQAPGKERELVATINSGGRTYDADSVKGRFTISRDNAKNTVYLQMNSLKPEDTAVYYCAATYQTKSNKYVHGSPIENDYWGQGTQVTGSS | low polyreactivity |
| QVQLEESGGGLVQAGGSLRLSCAASGRIFVTNAMGWSRQAPGKERELVADITSGGSTNYADSVKGRFTISRDNAKNTVYLQMNSLKPEDTAVYYCAARFTPYITSDDGHYDYWGQGTQVTVSS | low polyreactivity |
| QVQLEESGGGLVQAGGSLRLSCAASGRIFWANAMGWSRQAPGKERELVAAINRRTGITYYADSVKGRFTISRDNAKNTVYLQMNSLKPEDTAVYYCNAGSSPIRQYYGQVWKKGGYWGQGTQVTVSS | high polyreactivity |
| QVQLEESGGGLVQAGGSLRLSCAASGRIFYDYAMGWYRKAPGKERELVATISWSAGIKYYADSVKGRFTISRDNAKNTVYLQMNSLKPEDTAVYYCAKVGRYTYSGQYDYWGQGTQVTVSS | high polyreactivity |
| QVQLEESGGGLVQAGGSLRLSCAASGRIFYLNAMGWYRQAHGKERDLVAAITRSAASTHYADSVKGRFTISRDNAKNTVYLQLNSLKPEDTAVYYCAARFWYDYRHYDYWGQGTQVSVSS | low polyreactivity |

| Sequence | polyreactivity (PSR sort gate) |
| --- | --- |
| QVQLEESGGGLVQAGGSLRLSCAASGRIIRINPMGLYRQAPGKERELVAAITRGGTTYADSVKGRFTFSRDNAKNTVYLQMNSLKPEDTAVYYCNARTGRSPTGFLYWGQGTQVTVSS | high polyreactivity |
| QVQLEESGGGLVQAGGSLRLSCAASGRIYRYYDMGWYRQAPGKEREFVAAITRSGAITYYADSLKGRFTISRDNAKNTVYLQMNSLKPEDTAVYYCAAVDDDYSIVWYDYWGQVTQVTVSS | low polyreactivity |
| QVQLEESGGGLVQAGGSLRLSCAASGRSFRKYAMGWYRQAPGKERELVARISWSAGSTYYADSVKGRFKISRDIAMYTVYLQMNSLKPVDTAFYFCIDDGYYRYGNRVLRPGYYCGQGTQVTVSS | high polyreactivity |
| QVQLEESGGGLVQAGGSLRLSCAASGRTFLEYVMGWYRQAPGKERELVAVISWSTGSTYADSVKGRFTISRDNAKNTVYLQMNSLKPEDTAVYYCARRVQSLGNVVIYNYWGQGTQVTVSS | low polyreactivity |
| QVQLEESGGGLVQAGGSLRLSCAASGRTFRINAMGLYRQAPGKERELVAAIRSRAGSTYYADSVKGRFTISRDNAKNTVYLQMNSLKPEDTAVYYCAAKLPFDVDYWGQGTQVTVSS | high polyreactivity |
| QVQLEESGGGLVQAGGSLRLSCAASGRTFSPNTMGWYRQAPGKEREFVAAITASGDSTYYADSVKGRFTISRDNAKYSVYLQMNRLKPEDTAVYYCATDSNWYWGFNYWGQGTQVTVSS | low polyreactivity |
| QVQLEESGGGLVQAGGSLRLSCAASGRTFSRNAMGWYRQAPGKERELVAAITKGGGSTYYADSVKGRFTISRDNAKNTVYLQMNSLKPEDTAVYYCAARKRPPYGYGYWGQGTQVTVSS | high polyreactivity |
| QVQLEESGGGLVQAGGSLRLSCAASGRTFTPNAMGSSRQAPGKERELVASIRRGTSTYYADSVKGRFTISRDNAKITVYLQMNSLKPEDTAVYYCAARPFVPRVGTYSYYWGQGTQVTVSS | high polyreactivity |
| QVQLEESGGGLVQAGGSLRLSCAASGRTFTSNPMGLYRKAPGKERELVAAISNSGSSTYYADSVKGRFTISRDNAKNTVYLQMNSLKAEDTAVYYCAAYHYRQNTLYYYWGQGTQVTVSS | high polyreactivity |
| QVQLEESGGGLVQAGGSLRLSCAASGRTFTVYAMGWYRQAPGKERELVAGIRRGDSTYYADSVKGRFTISRDNAKNTVYLQMNSLKPEDTAVYYCAARPAGYGHYKYYYWGQGTQVTVSS | high polyreactivity |
| QVQLEESGGGLVQAGGSLRLSCAASGRTFVYNAMGWYRQAPGKERELVAAITSGGRTYYADSVKGRFTISRDNAKNTVYLQMNSLKPEDTAVYYCAADHRGEYDYWGQGTQVTVSS | low polyreactivity |
| QVQLEESGGGLVQAGGSLRLSCAASGRTLGGYAMGWYRQAPGKERELVASITARGGSTYYADSVKGRFTISRDNAKNTVYLQMNSLKPEDTAVYYCAARSGYYRGGFYYWGQGTQVTVSS | high polyreactivity |
| QVQLEESGGGLVQAGGSLRLSCAASGRTLQRNAMGWYRQAPGKERELVAAISWSGASTYYADSVKGRFTISRDNAKNTVYLQMTSLKPEDTAVYYCAATYIDRGNIYDYWGQGTQVTVSS | high polyreactivity |
| QVQLEESGGGLVQAGGSLRLSCAASGRTSLAYAKGWYRQAPGKERELVAGITSGGNTNYADSVKGRFTISRDNAKNTVYLQMNSLKPEDTAVYSCNKKKRWQWYSESVLVYLGFYSWGQGTQVTVSS | low polyreactivity |
| QVQLEESGGGLVQAGGSLRLSCAASGSIFDVIAMGWYSQAPGNVRVLVAAISDSGGSTYYADSVKGRFTNSRDNAKKTVYLQMNSLKPEDTAVYYCNADWSWYNYYDFDYWGLGTQVTVSS | low polyreactivity |
| QVQLEESGGGLVQAGGSLRLSCAASGSIFFFYAMGWYRQAPGKERELVAAISSDGSTKYADSVKGRFTISRDNAKNTVYLQMNILKPEDTAVYYCNADKWSVVGYVLGFYRDDYWGQGTQVTVSS | low polyreactivity |
| QVQLEESGGGLVQAGGSLRLSCAASGSIFKGYAMGWYRQAPGKESELVAAISGGGGSTYYADSVKGRFTISRDNAKNTVYLQMNSLKPEDTAVYYCNRDDSWSPSGAYDYWGQGTQVNVSS | low polyreactivity |
| QVQLEESGGGLVQAGGSLRLSCAASGSIFRNNSMGWYRKAPGKERVLVAVISRRSGNTYYADSVKGRLTISRDNAKNTVYLQMNSLKAEDTAVYYCAADYSKSSIRGEYWGQGTQVTVSS | low polyreactivity |
| QVQLEESGGGLVQAGGSLRLSCAASGSIFRNYAIGWYRQAPGKEREFVAANTYSGGSTHYADSVKGRFTISRDNAKNTVYLQMNSLKPEDTAVYYCAADYYWRVHYGYWGQGTQVTVSS | high polyreactivity |
| QVQLEESGGGLVQAGGSLRLSCAASGSIFVHNDMGWYRQAPGKERELVATIDSAGGTYYADSVKGRFTISRDNAKNTVYLQMNSLKPEDTAVYYCAAYGPYVLSIYDYWGQGTQVTVSS | low polyreactivity |
| QVQLEESGGGLVQAGGSLRLSCAASGSIFVRNAMGWYRQAPGKERELVASISRRGGSTYYADSVKGRFTISRDNAKNTVYLQMISLKPEDTAVYYCAARNQIVPYGTYNYWGQGTQVTVSS | high polyreactivity |
